In paper PMC8568920 (2021):

Molecular target: biotinylated lysocin E derivative, natural type (biotin (position not given); fatty acid chain moiety)
Assay: BLI

- Kd: 5.6 µM
B1: recombinant human apolipoprotein A-I ∆NM variant (domain or fragment)
chain: PVTQEFWDNLEKETEGLRQEMSKDLEEVKAKVQPYLDDFQKKWQEEMELYRQKVEPLRAELQEGARQKLHELQEKLSPLGTHLAPYSDELRQRLAARLEALKENGGARLAEYHAKATEHLSTLSEKAKPALEDLRQGLLPVLESFKVSFLSALEEYTKKLNTQ
